Sequences and labels used below:
B1: IL1RL1-15 (Fc fusion, not shown: a dimerising Fc or GST)
VHH: EVQLVESGGGLVQPGGSLRLSCAASGRTYSISAMGWFRQAPGKEREWVSSIGIAGTPTFYADSVKGRFTISADNSKNTAYLQMNSLKPEDTAVYYCAAGVTGGAAYGWGQGTLVTVSS
notes: VHH-Fc on IgG2 Fc
B2: IL1RL1-3 (Fc fusion, not shown: a dimerising Fc or GST)
VHH: EVQLVESGGGLVQPGGSLRLSCAASGRTFSMGWFRQAPGKEREWVSSIGIAGTPTFYADSVKGRFTISADNSKNTAYLQMNSLKPEDTAVYYCASTDDYGVDWGQGTLVTVSS
B3: IL1RL1-90 (Fc fusion, not shown: a dimerising Fc or GST)
VHH: EVQLVESGGGLVQPGGSLRLSCAASGVTLDLYAMGWFRQAPGKEREAVASISSSGSSIYYADSVKGRFTISADNSKNTAYLQMNSLKPEDTAVYYCAANYGGSVLYNWGQGTLVTVSS
notes: VHH-Fc on IgG2 Fc
B4: IL1RL1-8 (Fc fusion, not shown: a dimerising Fc or GST)
VHH: B3 VHH with V27R, L29S, D30N, L31I, A47F, I51L, S53A, S57L, I58T, Y59W
notes: VHH-Fc on IgG2 Fc
B5: IL1RL1-81 (Fc fusion, not shown: a dimerising Fc or GST)
VHH: EVQLVESGGGLVQPGGSLRLSCAASGVTLDLYAMGWFRQAPGKEREWVASISTSGSTITPYADSVKGRFTISADNSKNTAYLQMNSLKPEDTAVYYCAAIAYEEGVYRWDWGQGTLVTVSS
notes: VHH-Fc on IgG2 Fc
B6: IL1RL1-82 (Fc fusion, not shown: a dimerising Fc or GST)
VHH: B5 VHH with V27R, L29F, D30S, L31T, Y32L
notes: VHH-Fc on IgG2 Fc
B7: IL1RL1-12 (Fc fusion, not shown: a dimerising Fc or GST)
VHH: EVQLVESGGGLVQPGGSLRLSCAASGSIFGLNAMGWFRQAPGKEREFVAAISRFGSTDYADSVKGRFTISADNSKNTAYLQMNSLKPEDTAVYYCARSYCTADSCYSSWFDPWGQGTLVTVSS
notes: VHH-Fc on IgG2 Fc
B8: IL1RL1-14 (Fc fusion, not shown: a dimerising Fc or GST)
VHH: EVQLVESGGGLVQPGGSLRLSCAASGDISSIVAMGWFRQAPGKEREWVSSIDTGGGSNIVYADSVKGRFTISADNSKNTAYLQMNSLKPEDTAVYYCAAGLLDVQYVRQAAGYSWGQGTLVTVSS
notes: VHH-Fc on IgG2 Fc
B9: IL1RL1-5 (Fc fusion, not shown: a dimerising Fc or GST)
VHH: EVQLVESGGGLVQPGGSLRLSCAASGRTFSSIVMGWFRQAPGKEREMVAVIIDSRTTKYADSVKGRFTISADNSKNTAYLQMNSLKPEDTAVYYCAAVGGATTVTASEWDWGQGTLVTVSS
notes: VHH-Fc on IgG2 Fc
B10: IL1RL1-74 (Fc fusion, not shown: a dimerising Fc or GST)
VHH: B9 VHH with R27F, I32A, V33I, M47L
notes: VHH-Fc on IgG2 Fc
B11: IL1RL1-4 (Fc fusion, not shown: a dimerising Fc or GST)
VHH: B9 VHH with R27N, T28A, S30R, I32T, M47F
notes: VHH-Fc on IgG2 Fc
B12: IL1RL1-53 (Fc fusion, not shown: a dimerising Fc or GST)
VHH: B9 VHH with F29P, S31I, V33A, M47L
notes: VHH-Fc on IgG2 Fc
B13: IL1RL1-7 (Fc fusion, not shown: a dimerising Fc or GST)
VHH: EVQLVESGGGLVQPGGSLRLSCAASGRTSNIYAMGWFRQAPGKEREPVASITPGGRFPAYADSVKGRFTISADNSKNTAYLQMNSLKPEDTAVYYCSTLYYSGLDPVDYWGQGTLVTVSS
notes: VHH-Fc on IgG2 Fc
B14: IL1RL1-17 (Fc fusion, not shown: a dimerising Fc or GST)
VHH: EVQLVESGGGLVQPGGSLRLSCAASGRDLDYYAMGWFRQAPGKEREWVSSIGIAGTPTFYADSVKGRFTISADNSKNTAYLQMNSLKPEDTAVYYCAVVDLLRGKLWGQGTLVTVSS
notes: VHH-Fc on IgG2 Fc
B15: IL1RL1-10 (Fc fusion, not shown: a dimerising Fc or GST)
VHH: EVQLVESGGGLVQPGGSLRLSCAASGRTSNIYAMGWFRQAPGKEREWVASISTSGSTITPYADSVKGRFTISADNSKNTAYLQMNSLKPEDTAVYYCAAVYVSTWGNGYDWGQGTLVTVSS
notes: VHH-Fc on IgG2 Fc
B16: IL1RL1-11 (Fc fusion, not shown: a dimerising Fc or GST)
VHH: EVQLVESGGGLVQPGGSLRLSCAASGRTFNWYAMGWFRQAPGKEREWVSSIGIAGTPTFYADSVKGRFTISADNSKNTAYLQMNSLKPEDTAVYYCAAVSSNSETFDWGQGTLVTVSS
notes: VHH-Fc on IgG2 Fc
B17: IL1RL1-6 (Fc fusion, not shown: a dimerising Fc or GST)
VHH: EVQLVESGGGLVQPGGSLRLSCAASGRTISTYGMGWFRQAPGKEREWVSGINRDGSTYYADRVKGRFTISADNSKNTAYLQMNSLKPEDTAVYYCALRRLSPPPLLDWGQGTLVTVSS
notes: VHH-Fc on IgG2 Fc
B18: IL1RL1-16 (Fc fusion, not shown: a dimerising Fc or GST)
VHH: EVQLVESGGGLVQPGGSLRLSCAASGFSLDYYGMGWFRQAPGKEREGVATINWSGATSYADSVKGRFTISADNSKNTAYLQMNSLKPEDTAVYYCAIPGVWGQGTLVTVSS
notes: VHH-Fc on IgG2 Fc

Numbering of substitutions follows the chain as printed.

The first assay concerns the target T1, IL1RL1 (UniProt Q01638 19-328, limits assumed).
T1 construct: SPR analyte
T1 sequence (looked up): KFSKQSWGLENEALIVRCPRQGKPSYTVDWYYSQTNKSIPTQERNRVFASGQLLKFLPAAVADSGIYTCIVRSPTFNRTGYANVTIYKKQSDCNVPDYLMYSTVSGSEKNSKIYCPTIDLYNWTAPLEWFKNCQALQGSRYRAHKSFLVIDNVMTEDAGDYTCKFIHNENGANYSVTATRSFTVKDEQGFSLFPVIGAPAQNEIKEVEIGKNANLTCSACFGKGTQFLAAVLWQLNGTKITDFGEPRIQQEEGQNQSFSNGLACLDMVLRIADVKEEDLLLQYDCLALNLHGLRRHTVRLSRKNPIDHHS
Briefly: SPR (Carterra LSA), antibody amine-coupled, 1:1 model.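 Also: HC30M sensor chip at 25 °C in HBS-TE, analyte at rising concentrations in buffer containing 0.5 mg/mL BSA, 5 min association then 15 min dissociation.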
Experimental: SPR experiments were performed on a Carterra LSA SPR biosensor equipped with a HC30M chip at 25° C. in HBS-TE. Antibodies were diluted to 10 μg/mL and amine-coupled to the sensor chip by EDC/NHS activation, followed by ethanolamine HCl quenching. Increasing concentrations of analyte were flowed over the sensor chip in HBS-TE with 0.5 mg/mL BSA with 5-minute association and 15-minute dissociation. Following each injection cycle the surface was regenerated with 2× 30-second injections of IgG elution buffer (Thermo). Data were analyzed in Carterra's Kinetics Tool software with 1:1 binding model.
In turn, B1 had a Kd of 3.23 nM, a koff of 0.00041 s⁻¹ and a kon of 127000 M⁻¹ s⁻¹.
Take B2: the equilibrium dissociation constant (Kd) is not above 0.0524 nM, the koff was not above 1e-05 s⁻¹ and the kon was determined as 191000 M⁻¹ s⁻¹.
With B3, the Kd is not above 0.078 nM, the koff was not above 1e-05 s⁻¹ and the kon worked out at 128000 M⁻¹ s⁻¹.
The corresponding values for B4 are not above 0.166 nM, not above 1e-05 s⁻¹ and 60300 M⁻¹ s⁻¹.
B5: the Kd worked out at 0.285 nM, the koff is 4.51e-05 s⁻¹ and the kon amounted to 159000 M⁻¹ s⁻¹.
The molecule B6 gave a Kd not above 0.128 nM, a koff not above 1e-05 s⁻¹ and a kon of 78400 M⁻¹ s⁻¹.
The corresponding values for B7 are 4.08 nM, 0.000326 s⁻¹ and 80100 M⁻¹ s⁻¹.
The matching figures for B8: not above 0.0744 nM, not above 1e-05 s⁻¹ and 134000 M⁻¹ s⁻¹.
The matching figures for B9: 0.846 nM, 0.000162 s⁻¹ and 191000 M⁻¹ s⁻¹.
B10 displayed a Kd not above 0.0505 nM, a koff not above 1e-05 s⁻¹ and a kon of 198000 M⁻¹ s⁻¹.
The corresponding values for B11 are not above 0.0574 nM, not above 1e-05 s⁻¹ and 174000 M⁻¹ s⁻¹.
The corresponding values for B12 are 0.927 nM, 0.000267 s⁻¹ and 289000 M⁻¹ s⁻¹.
The corresponding values for B13 are not above 0.0757 nM, not above 1e-05 s⁻¹ and 132000 M⁻¹ s⁻¹.
As for B14, the Kd was determined as 2.76 nM, the koff is 0.000588 s⁻¹ and the kon came out at 213000 M⁻¹ s⁻¹.
Turning to B15, the Kd was found to be 2.02 nM, the koff came to 0.000241 s⁻¹ and the association rate constant (kon) is 119000 M⁻¹ s⁻¹.
B16 came in with a Kd of 12.9 nM, a koff of 0.000681 s⁻¹ and an on-rate (kon) of 52800 M⁻¹ s⁻¹.
The corresponding values for B17 are 0.149 nM, 3.7e-05 s⁻¹ and 248000 M⁻¹ s⁻¹.
The matching figures for B18: 5.71 nM, 0.0011 s⁻¹ and 193000 M⁻¹ s⁻¹.

In a further assay the target is T2, IL1RL1 over-expressed on Expi293 cells (UniProt Q01638 19-556, limits assumed).
T2 construct: whole, on cells; Target of the flow cytometry MFI ratio (over-expressing cells over parent cells); also called cytokine over-expressing Expi293 cells
T2 sequence (looked up): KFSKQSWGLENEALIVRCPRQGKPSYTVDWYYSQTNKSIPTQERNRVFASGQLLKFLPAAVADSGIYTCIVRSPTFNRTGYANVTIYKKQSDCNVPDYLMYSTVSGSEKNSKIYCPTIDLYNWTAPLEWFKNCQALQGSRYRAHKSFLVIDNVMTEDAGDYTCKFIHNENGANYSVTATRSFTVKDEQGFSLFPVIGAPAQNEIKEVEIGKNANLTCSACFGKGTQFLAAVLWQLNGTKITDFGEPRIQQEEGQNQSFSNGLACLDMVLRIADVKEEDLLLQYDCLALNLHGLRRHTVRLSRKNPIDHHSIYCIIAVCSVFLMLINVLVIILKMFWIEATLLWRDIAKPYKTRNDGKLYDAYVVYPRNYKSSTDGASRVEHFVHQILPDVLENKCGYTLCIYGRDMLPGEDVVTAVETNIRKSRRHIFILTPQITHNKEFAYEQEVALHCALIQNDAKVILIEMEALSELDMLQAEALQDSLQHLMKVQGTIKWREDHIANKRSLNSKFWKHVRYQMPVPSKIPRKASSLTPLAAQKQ
The assay can be described thus: flow cytometry, 100 nM antibody, over-expressing Expi293 / parent cells. For orientation: Flow cytometry measures light scatter and fluorescence of single cells or particles in a stream.
Experimental: All incubations and washes were in buffer containing PBS+1% BSA. MFI Ratio is defined by the mean fluorescence intensity (MFI) of the cytokine over-expressing Expi293 cell over the Expi293 parent cell. […] EC50 was calculated in GraphPad Prism.
B1: the “100 nM FACS (MFI Ratio)” value turned out to be 331 MFI ratio.
On to B2, for which the “100 nM FACS (MFI Ratio)” value was determined as 492 MFI ratio.
For B3, the “100 nM FACS (MFI Ratio)” value was found to be 105 MFI ratio.
Regarding B4, the “100 nM FACS (MFI Ratio)” value came to 298 MFI ratio.
On the same count and under the same terms, with B5 the figure was 217 MFI ratio; with B6, 344 MFI ratio; with B7, 437 MFI ratio.
On the same count and under the same terms, with B8 the figure was 515 MFI ratio; with B9, 508 MFI ratio.
Same read-out and setting: with B10 the figure was 521 MFI ratio; with B11, 472 MFI ratio.
As for B12, the “100 nM FACS (MFI Ratio)” value was 441 MFI ratio.
For B13, the “100 nM FACS (MFI Ratio)” value came out at 586 MFI ratio.
The same measure, in the same setting: as for B14, the figure is 415 MFI ratio.
As for B15, the “100 nM FACS (MFI Ratio)” value is 398 MFI ratio.
On the same count and under the same terms, as for B16, the figure is 446 MFI ratio; as for B17, 128 MFI ratio; as for B18, 478 MFI ratio.

As a reminder, the Kd is a measure of binding affinity in units of concentration. Read a high Kd as a looser complex. What is called koff is the first-order rate constant of dissociation. The kon is the second-order rate constant of association. A lower kon goes with slow association.

The values above are taken from US20230265179A1 (TWIST BIOSCIENCE, published 2023).
